# Source: IntAct's records for PubMed 14732713
# B1: Rho-related GTP-binding protein RhoN (Homo sapiens), P52198 (parent)
# chain: MEGQSGRCKIVVVGDAECGKTALLQVFAKDAYPGSYVPTVFENYTASFEIDKRRIELNMWDTSGSSYYDNVRPLAYPDSDAVLICFDISRPETLDSVLKKWQGETQEFCPNAKVVLVGCKLDMRTDLATLRELSKQRLIPVTHEQGTVLAKQVGAVSYVECSSRSSERSVRDVFHVATVASLGRGHRQLRRTDSRRGMQRSAQLSGRPDRGNEGEIHKDRAKSCNLM
# partner: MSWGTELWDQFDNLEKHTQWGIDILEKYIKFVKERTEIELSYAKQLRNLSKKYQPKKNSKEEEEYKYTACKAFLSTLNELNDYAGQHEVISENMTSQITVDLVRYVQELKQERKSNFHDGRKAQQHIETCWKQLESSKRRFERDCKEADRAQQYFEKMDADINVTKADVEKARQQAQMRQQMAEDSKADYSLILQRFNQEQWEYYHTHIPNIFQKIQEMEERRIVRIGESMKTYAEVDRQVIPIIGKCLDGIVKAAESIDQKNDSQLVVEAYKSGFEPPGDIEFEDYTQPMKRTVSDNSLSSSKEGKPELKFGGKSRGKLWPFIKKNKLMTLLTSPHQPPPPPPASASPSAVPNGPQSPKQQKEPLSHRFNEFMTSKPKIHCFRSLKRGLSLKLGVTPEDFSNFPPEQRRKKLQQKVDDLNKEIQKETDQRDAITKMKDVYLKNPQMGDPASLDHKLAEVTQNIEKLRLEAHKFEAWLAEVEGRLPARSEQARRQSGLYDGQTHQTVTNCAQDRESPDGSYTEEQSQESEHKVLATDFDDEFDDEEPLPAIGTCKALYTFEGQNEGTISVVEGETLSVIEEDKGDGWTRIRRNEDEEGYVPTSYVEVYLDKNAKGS
# Variants of: B1
# Conditions: with fnbp1_rat Fnbp1, Q8R511
row,Variant,effect of a mutation on the interaction
1,A16V,increasing interaction
